Percent reduction of specific anti-LFA-3 reactivity and half-maximal inhibition of sheep erythrocyte-Jurkat T cell rosettes data for 1 substance are collected here from PMC2189283.

Assay [1] concerns the target LFA-3 surface glycoprotein on the human B-lymphoblastoid line JY (human (endogenous in JY)) (UniProt P19256). Kind of assay: flow cytometry on cells.
Assay [2] deals with CD2 ligand on sheep erythrocytes (T11TS, the sheep homologue of LFA-3) (sheep (endogenous in sheep erythrocytes)).

Chain of UniProt P19256 (P19256 29-250): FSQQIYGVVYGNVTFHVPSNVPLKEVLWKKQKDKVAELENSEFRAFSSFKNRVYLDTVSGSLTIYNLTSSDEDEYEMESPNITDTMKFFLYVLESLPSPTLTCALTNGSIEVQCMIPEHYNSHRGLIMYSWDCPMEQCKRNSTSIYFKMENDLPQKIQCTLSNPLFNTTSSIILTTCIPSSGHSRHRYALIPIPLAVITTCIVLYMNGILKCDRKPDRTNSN

Consider “T11ex2, recombinant soluble CD2 (T11) molecule that corresponds to the two extracellular segment exons (domain or fragment)”, for which the percent reduction of specific anti-LFA-3 reactivity at 10 uM T11ex2 in assay [1] came out at 85%. Further, the half-maximal inhibition of sheep erythrocyte-Jurkat T cell rosettes in assay [2] fell in the range of 0.63 to 1.25 µM.
